Here are results for 4 molecules from article PMC10827105.

Series [1] deals with CifRTR (CifR C99T/C181R) (Pseudomonas aeruginosa). The experiment in a line: SEC. In general terms: In gel filtration, larger molecules generally elute earlier.
For series [2] the target is unchanged. Put plainly: SEC + AUC.
Series [3] addresses T1, CifRTR (Pseudomonas aeruginosa, UniProt A0A0H2ZCS5 1-196, C99T;C181R). Put plainly: EMSA. (In general: Mobility shift assays separate free from complexed probe on a gel.)
For a further series, the target named is CifRTR-C107S (Pseudomonas aeruginosa, UniProt A0A0H2ZCS5 1-196, C99T;C107S;C181R). The experiment in a line: X-ray crystallography.
Series [4] has as its target T1, CifRTR. The experiment in a line: SEC.
The target of series [5] is T1, CifRTR. Put plainly: EMSA. This is another data set of the same source.

As a reminder, the stoichiometry N is a count of units in the complex or per binding partner.

As for “CifRTR (CifR C99T/C181R) (natural protein)”, the stoichiometry N in series [1] and in series [2] was 2 each time.

B1: cifR-prox dsDNA23 (dsDNA)
DNA 1: TATTTGTATCGATCACTATAAAT
DNA 2: ATTTATAGTGATCGATACAAATA
Consider B1, for which the binding result with CifRTR [3] is on record as “binds”.

B2: cifR-prox dsDNA26L (dsDNA)
DNA 1: TTATTTGTATCGATCACTATAAATTT
DNA 2: AAATTTATAGTGATCGATACAAATAA
With B2, the binding result in the series with CifRTR-C107S and with CifRTR [4] was “binds” in each case.

B3: cifR-prox dsDNA36 (dsDNA)
DNA 1: CCTCCATTATTTGTATCGATCACTATAAATTTACTT
DNA 2: AAGTAAATTTATAGTGATCGATACAAATAATGGAGG
Take B3: the binding result with CifRTR [5] is reported as “binds”.
